Laboratory results published in the supplement of paper PMC10567573.

B1: KRT15 (parent)
chain: SNFHINVEESVDGQVVSSHKREI
B2: SLC6A17 (parent)
chain: HMFTPKLDKMLDPQVWREAATQVF

Variants of: B1
Assay: protein stability index of a GFP-peptide fusion (GPS, HEK-293T) (PSI 1-6); higher = more stable
Conditions: c terminus: native
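Note: lentivirally expressed fusions sorted by FACS into six bins by GFP to DsRed ratio, PSI derived from sequencing read proportions per bin multiplied by bin number.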

Protein stability index, by site and new letter:
N2: K 1.36 | E 1.69 | P 3.02 | S 1.96 | M 2.04 | L 2.23 | I 2.85 | D 1.78 | G 1.87 | C 2.13 | A 1.57 | F 2.6 | Y 1.68 | V 1.71 | T 1.9 | W 2.14 | H 2.79 | R 1.39
H4: A 1.98 | D 2.63 | I 2.12 | K 1.94 | R 1.6 | T 1.43 | P 2.57 | C 2.78 | F 1.49 | Q 1.52 | M 1.59 | G 2.5 | S 2.16 | E 3.18 | N 2.09
F3: Y 1.61 | E 2.33 | P 2.15 | V 2.18 | I 2.77 | L 1.84 | A 2.51 | N 2.78 | C 4.67 | H 3.1 | D 3.01 | Q 2.5 | K 2.7 | T 2.69 | S 1.91 | M 2.2 | R 2.87
S1: M 1.31 | R 2.66 | Y 1.23 | H 2.44 | Q 1.92 | K 1.69 | T 2.73 | F 3.46 | D 3.04 | C 1.57 | P 2.35 | I 2.56 | A 2.11 | V 1.78 | W 2.31 | N 2.03 | G 1.39

Variants of: B2
Assay: as above
Conditions: c terminus: a fixed tail appended

Protein stability index: each site, then its substitutions
V23: D 3.65 | Y 2.17 | T 2.02 | N 2.07 | H 2.02 | E 2.9 | R 3.06 | M 1.55 | S 2.05 | F 2.16 | C 2.99 | A 2.02 | P 2.2 | K 2.48 | G 2.2 | L 1.58 | W 1.75 | I 1.89 | Q 1.74
Q22: W 2.1 | L 1.68 | S 1.9 | I 1.45 | N 2.5 | K 2.52 | E 1.9 | T 1.82 | M 3.21 | A 1.36 | C 1.81 | Y 1.85 | D 2.43 | G 1.93 | H 1.64 | R 1.77 | P 1.67
A20: T 2.19 | E 2.41 | F 1.43 | Q 1.7 | P 1.48 | H 1.26 | K 2.38 | L 2.6 | C 1.82 | S 2.03 | N 1.94 | R 1.87 | D 2.24 | I 2.21 | V 1.22 | G 1.82
F24: C 1.97 | R 2.85 | H 2.18 | A 2.29 | M 2.96 | K 3.81 | Q 2.64 | I 1.54 | D 3.56 | V 2.69 | S 3.39 | T 2.38 | Y 1.88 | L 2.7 | P 3.17 | N 2.67
T21: P 2.46 | F 3.23 | L 1.88 | N 2.21 | C 1.06 | M 1.54 | Q 1.28 | E 2.42 | Y 1.54 | A 1.91 | G 2.13 | K 3.06 | H 1.76 | V 1.71 | I 1.48 | S 1.94 | D 2.36 | R 1.84 | W 2.48
A19: W 1.35 | M 1.5 | N 2.35 | T 2.56 | Q 2.35 | R 2.03 | I 1.91 | V 2.15 | S 1.52 | L 1.48 | P 2.24 | Y 2.12 | K 1.79
